This sample holds only a part of the variants without activity.
B1: TPR 5TU (parent)
chain: GGAUCUUCUCGAUCUAACAAAAAAGACAAAUCUGCCACAAAGCUUGAGAGCAUCUUCGGAUGCAGAGGCGGCAGCCUUCGGUGGCGCGAUAGCGCCAACGUUCUCAACUAUGACACGCAAAACGCGUGCUCCGUUGAAUGGAGUUUAUCAUG

Variants of: B1
Assay: polymerase ribozyme fitness, log enrichment relative to wild type (log ratio); higher = more active; in vitro selection for triplet polymerase activity
Outline: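 Each subunit of a heterodimeric triplet polymerase ribozyme was mutagenized into a library by PCR, transcribed, and subjected to one round of in vitro selection, run in triplicate. Libraries were annealed with a biotinylated primer, the partner subunit and triplets, incubated frozen at −7 °C, and extended constructs were gel-excised, captured on streptavidin beads and recovered by RT-PCR. Input and output libraries were sequenced on Illumina, keeping genotypes with ≥10 input reads and ≥1 read per output. Fitness is log base 2 of genotype enrichment divided by wild-type enrichment, from inverse-variance-weighted replicate averages.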

| Variant | polymerase ribozyme fitness (log ratio) |
| --- | --- |
| G25A C27G A30C C32G G68A C87A A107U | ≤ -4.2 |
| A24G G71C C79G C85A G124U U130G U148C | ≤ -4.2 |
| A22C G84A C99A G152U | ≤ -4.2 |
| A22C G46A G59C A91C C99G U101G C116G A138C | ≤ -4.2 |
| A24C G81U C87G U104G A110U | ≤ -4.2 |
| A22U A23C | -4 |
| A23C C57U G74C G92U U102A A115C G143C U151A | ≤ -4.2 |
| A22U G50U | 1.37 |
| A22U G50C | -2.99 |
| A24G G25A G84A C125G G152A | ≤ -4.2 |
| A24C A37C U53A A66U C95A C114G U135C U144A | ≤ -4.2 |
| A23U G46U G67U C96G U146G U151A | ≤ -4.2 |
| A23C A60G C96A C118U | ≤ -4.2 |
| A24U A49U C51U G70A C85U G112U C114A A122U U146C | ≤ -4.2 |
| A23C C79A C103U A138G G143C | ≤ -4.2 |
| A22U U53A G88A C116G A142G A150C | ≤ -4.2 |
| A24U G58A G88U | ≤ -4.2 |
| A24U G42A G88A G92A A115C | ≤ -4.2 |
| A22U U55G A73C G86A C116A A142U | ≤ -4.2 |
| A24U A40C U55A A60G C75G C96G U104G | ≤ -4.2 |
| G25A A30G A41U G50A C87U | ≤ -4.2 |
| A22U G140A | -2.83 |
| A23C A30U G50A C54A C93G C95U G124A | ≤ -4.2 |
| A24U C54A G58A G84A A120G G126U | -1.19 |

| Variant | polymerase ribozyme fitness (log ratio) |
| --- | --- |
| A23U U56A A73U G86A C93G C131G U139C | ≤ -4.2 |
| A24U A97G U151C | ≤ -4.2 |
| A24U C93U C118U A121G | -1.37 |
| A22G A23U U53G C57A G84U C114U C129U | ≤ -4.2 |
| A22U G71A | -2.64 |
| A24U U56A | 0.265 |
| A22C G92C U109C U148A | -4.16 |
| A24G C32A C38A U45A C57U A106U C118U | ≤ -4.2 |
| A24G U44A A49C U82G A122U G140C C149U | -4.02 |
| A24U U31A C63G C76A | -3.16 |
| A22U C27G G50C G58C A97G C103G A110U U139A | ≤ -4.2 |
| A22U A26U | -2.88 |
| A23C A47G C96A | ≤ -4.2 |
| A22U A73G U82A | 1.72 |
| A22U G143C | -1.09 |
| A24U G88C U139C U144C | ≤ -4.2 |
| A22U C54A | -0.932 |
| A22U C36G C105G | ≤ -4.2 |
| A24U A60U G84U | -2.22 |
| A24G U31C | -3.52 |
| A24U U148C | -2.14 |
| A24U A28G A29U C93G C114U | ≤ -4.2 |
| A23C A64G G70C | ≤ -4.2 |
| A22U U56A | -0.239 |

| Variant | polymerase ribozyme fitness (log ratio) |
| --- | --- |
| A22U G58C C87U U135C | -2.68 |
| A24U U33G U77A C87U | ≤ -4.2 |
| A22U G80A | 0.375 |
| A22U C43U A47C A91C C108U A115U A121C | ≤ -4.2 |
| A22U G92C C93U A119G | -3.96 |
| A22U G25C G48C A122U | ≤ -4.2 |
| A23G U44G U53G A91C C95U C103A G117A A121C G126A | ≤ -4.2 |
| A23G C35U U56A C85A C118U G124U | -4.08 |
| A22C G92C C114U A150C | ≤ -4.2 |
| G25A C54A G84U C114U A115G A121C U145G A150U | ≤ -4.2 |
| A23U U44A U55A A122U | ≤ -4.2 |
| A22U C95U C103G | -1.55 |
| A24C A26U U31A G68U C87A A89G A98G C132G | ≤ -4.2 |
| A22G C85U G133C | -1.48 |
| A22G U144C | 0.51 |
| A23U C93A U135C | ≤ -4.2 |
| A24U C35U C75U | -2.19 |
| A24U A49C C54U C75G C85A A122U U144C A147C | ≤ -4.2 |
| A23G A47C | -2.96 |
| A22G U31C G94C | 0.086 |
| A24C G58A | ≤ -4.2 |
| A23C A40C G83U U102A U145A | ≤ -4.2 |
| A23U A40U A73G | ≤ -4.2 |
| A23U C87G A91G | ≤ -4.2 |

| Variant | polymerase ribozyme fitness (log ratio) |
| --- | --- |
| A24U A52C | -0.457 |
| A24U A60G C79G C96G U109C | ≤ -4.2 |
| A23U G83U C93A G126U C129U | ≤ -4.2 |
| A24C C85U | -3.65 |
| A22C U56A C57U U104G U135C | -3.35 |
| A23U G42C G88C C105G C116G | ≤ -4.2 |
| A22U G83C G84A U101A C123A | -4.08 |
| A23C G67A A73U C96U G140C | ≤ -4.2 |
| A24C G50C U56A C93U G94C U148C | ≤ -4.2 |
| A24U C57A A89U C95U C118U G143U | ≤ -4.2 |
| A22U U56A A106U A107C A142G | ≤ -4.2 |
| A24C C75A A106U C132G U139C A142U | ≤ -4.2 |
| A22U A49U G81U G86C G141C | -4.13 |
| A24G G50C C72U C87G U111C | ≤ -4.2 |
| A24G A49C C51A U78G G81C | ≤ -4.2 |
| A24G A52C G68A U151G | ≤ -4.2 |
| A22U C36U U78C U146C | -3.63 |
| A23C C27U A29G C87U A110G | ≤ -4.2 |
| G25A C51U G92U A119U G124U | -3.78 |
| A24C C43U C93G G141U | ≤ -4.2 |
| A24U C99U | -1.46 |
| A23U A52G C76U C79A C103A | ≤ -4.2 |
| A22U C32U U55G U56C C75A G88U C105U A142U | ≤ -4.2 |
| A23G C35U C51U C93G A121G A122U | ≤ -4.2 |

| Variant | polymerase ribozyme fitness (log ratio) |
| --- | --- |
| G25A A28U G94A U102A A137C | ≤ -4.2 |
| A24C C32U A39U U90A C95G A138U U144A | ≤ -4.2 |
| A23C U44G A47U A91U A122U | ≤ -4.2 |
| A24U G48A A49G G50A U55A C123A G136C | ≤ -4.2 |
| A22U C27U G86U | -3.28 |
| A23C A40U C95U U134A U151A | ≤ -4.2 |
| A22G G65A A97U | -2.68 |
| A22G U56A C96G U101C G143A U148A | ≤ -4.2 |
| A24C A49U C87A G92A G140U | ≤ -4.2 |
| A23C A39G C63U U104C C108G U135C | ≤ -4.2 |
| A22U G50U C96G | 0.467 |
| A24C C27A U56A G58A C72U A73U C87U | ≤ -4.2 |
| A23G G86U C93U A150U | -3.88 |
| A22G C51U G83A | 0.818 |
| A24U A37U C51A C87U A98U G100U | ≤ -4.2 |
| G25A C76U C87A A110G A120G | ≤ -4.2 |
| A24G C57A G59U C75A U90G C103G C108U A110C G133U G141C | ≤ -4.2 |
| A23C U56A G86U A115G | ≤ -4.2 |
| A22G G117A | 1.13 |
| A22U C96U | 0.237 |
| A23G C38U U61A C69A C76U C96G C116U G117U | ≤ -4.2 |
| A22C G42U A73U G81C A91U C96U A107G G143C | ≤ -4.2 |
| A22U A106G | 1.21 |
| A24U A113C | -3.05 |

| Variant | polymerase ribozyme fitness (log ratio) |
| --- | --- |
| A24G G83U | -3.03 |
| A22C G86C | -2.83 |
| A23C U44C U55G C57A C93U U145A | ≤ -4.2 |
| A23C A60U G84U C105A | ≤ -4.2 |
| A22U C99U U101G A115U U151G | ≤ -4.2 |
| A23U C38U C114U G126A | ≤ -4.2 |
| A22U C85U | -0.371 |
| A22U U55A G94A A98U U135A | -2.29 |
| A24C U56G G59C A91U U144C G152U | ≤ -4.2 |
| A23U C72U G83A U109A U151G | ≤ -4.2 |
| A24C A28G U53A U134A | ≤ -4.2 |
| A22G C35U C93G A142C A150G | ≤ -4.2 |
| G25A C35U G84A C87A A91U C118U A142G | ≤ -4.2 |
| A22G A24U G59C C96G A98U | 0.453 |
| A23U A29G U101C | ≤ -4.2 |
| G25A C35U U56A A60C C85A C93U A106C | ≤ -4.2 |
| A24U G48U G83A | -1.25 |
| A22U C54A A91G | -3.53 |
| A24U G83U C85G G126U | ≤ -4.2 |
| A23C G141C | -3.64 |
| A24U G50U U56G G58U C76U A122G | -4.1 |
| A22U A47G U56C G92C C105U | -3.13 |
| A24U A37G | -2.41 |
| A24G G62U C85U U146A | ≤ -4.2 |

| Variant | polymerase ribozyme fitness (log ratio) |
| --- | --- |
| A22U C57G C93G U151G | ≤ -4.2 |
| A23G U44A U56A | ≤ -4.2 |
| A22U A52U U78A C85U U127A A137C | ≤ -4.2 |
| A23U G68A A73U C99U | ≤ -4.2 |
| A24U G84A G94U C96A A121U G126U U135A | -4.1 |
| A24U A41U G62C G70C C85G G152A | ≤ -4.2 |
| A24U C36A U44A C72G C95A A119G G140C | ≤ -4.2 |
| A23C G48C G68C C99U U101C A122U U144G | ≤ -4.2 |
| G25C A26C | -2.94 |
| A23U U53G | ≤ -4.2 |
| A22U C57U G70A G81C G83C G100C A106C G133C | ≤ -4.2 |
| A23U G80U A91U G143C A150G | ≤ -4.2 |
| A22U G141C | 1.14 |
| A23U A49C U61G C87A | ≤ -4.2 |
| A24G C51G G59C G92C C99U C125U | ≤ -4.2 |
| A23G A29G C95G G152U | -3.84 |
| A24U A26C A29U A40U A52G G62U C85U | ≤ -4.2 |
| A24C A37C G59A C99G A107U | ≤ -4.2 |
| A24U G50C C57U C79G C118G U148C | ≤ -4.2 |
| A23G U90A C93U C105U C125U | ≤ -4.2 |
| A23U A28G U55A G59A U78G G128A | -3.79 |
| A24G C38G A40U A110C | ≤ -4.2 |
| A24U A37U G42C C75G | -3.99 |
